The assay relates to E2F1/Dp-1 heterodimer. As to the kind of experiment: Rb activity assay (LB-Rb with E2F1-SB, DP1 split luciferase). Also on record: key to Observed activity: N—no activity; A—active as WT; R—reduced activity compared to the WT. It is filed as cell-based, human. The note with it: for luciferase activity / E2F1 interaction of Rb mutant: LB-Rb and E2F1-SB with Dp-1; for Observed activity / % (/wt): Rb mutants; for % (/wt): activity relative to WT. An excerpt: An assay that could measure the interaction between Rb, E2F1, and Dp-1 was developed. Since Dp-1 forms a heterodimer with E2F1 and that interaction is crucial for Rb/E2F1 binding, the assay was comprised of three components. When two proteins (Rb and E2F1) are in close proximity or in complex, a light signal was observed. For the purposes of the current assay, split-luciferase complementation was used to measure the interaction between Rb and E2F1. The NanoBiT assay system by Promega (Madison, Wis.; Dixon et al., 2015, ACS ChemBiol) was used in our split luciferase complementation design.
FIG. 16 depicts the design of a signal system to measure Rb activity. Under basal conditions inside the cell, Rb was active and interacted with the E2F1/Dp-1 heterodimer. For this assay design, cDNAs of Rb linked to different parts of the luciferase protein, either termed as the “Small BiT” (SB), or “Large BiT” (LB) and E2F1 linked to the opposite portion of the luciferase protein were created. When Rb and E2F1/Dp-1 bind, the NanoBiT parts of the luciferase form a complex and emitted a light signal when the luciferase (NanoGlo) substrate was added.
Using the described assay design, HEK293 CDK DKO cells were transiently transfected with different combinations of SB-Rb or LB-Rb and E2F1-LB or E2F1-SB components containing C-terminal and N-terminal constructs (FIG. 17). Relative intensities generated are presented in FIG. 17 as relative luminescence units (RLU). The data represents a sample experiment where each condition was performed in triplicate and represent mean+SD.
The LB-Rb and E2F1-SB with Dp-1 were tested for Rb activity using known Rb null mutants: R661W and C706F (FIG. 18A). […] Rb in-frame (del35) and out-of frame (del1) deletion mutants (FIG. 18B) were constructed and the observed luciferase activity was close to 0, in particular for del1 mutant, because Rb-E2F1 binding was destroyed.
Within the provided assay design, stable cell lines using the HEK293 CDK DKO cell parent line expressing E2F1-SB and Dp-1 were produced. After selection and screening for positive clones using an LB-Rb-mediated increase in signal, four stable single cell clones were selected and evaluated using different Rb mutants (FIGS. 19A and 19B). The response to E2F1 interaction was also checked by using the plasmid and linear form of DNA. Cell line #37 was selected for all our experiments in assay development due to its favorable response.
The conditions of the assay were further optimized by analyzing different cell numbers and Rb concentrations (FIG. 20). Based on the data, it was decided to use 0.2×10^6 cells/ml and 70 ng of DNA in the assay.
Known null and out/in-frame deletion mutants disrupting E2F1 binding and unknown COSMIC mutants were created to examine the ability of the assay to detect variants in Rb that affect function. We transfected WT or mutated Rb using similar conditions as previously indicated (FIG. 20). […] In addition, the null C706F and deletion (del1) mutants presented a signal close to zero as expected for loss of function mutants that disrupt E2F1 interaction. […] This confirmed that the assay was capable of determining the relative activity level of Rb mutants. The data is provided in Luminescence (RLU) of a single experiment with each condition performed in triplicate and represent average+SD.

“Also recorded” adds a separate entry of the source.

E2F1/Dp-1 heterodimer, sequence (Q01094 58-437 limits assumed): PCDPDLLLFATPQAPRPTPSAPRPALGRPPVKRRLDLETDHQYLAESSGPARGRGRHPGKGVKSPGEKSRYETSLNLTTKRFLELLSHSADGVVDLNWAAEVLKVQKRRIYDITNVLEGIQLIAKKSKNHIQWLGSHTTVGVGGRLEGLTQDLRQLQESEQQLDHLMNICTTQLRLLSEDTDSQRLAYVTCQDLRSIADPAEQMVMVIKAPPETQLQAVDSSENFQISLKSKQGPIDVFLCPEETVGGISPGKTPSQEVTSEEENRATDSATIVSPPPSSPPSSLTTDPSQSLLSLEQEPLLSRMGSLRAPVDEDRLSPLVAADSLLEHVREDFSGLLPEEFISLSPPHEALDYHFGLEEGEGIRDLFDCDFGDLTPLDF
E2F1/Dp-1 heterodimer, sequence (Q14186 whole entry, further chain): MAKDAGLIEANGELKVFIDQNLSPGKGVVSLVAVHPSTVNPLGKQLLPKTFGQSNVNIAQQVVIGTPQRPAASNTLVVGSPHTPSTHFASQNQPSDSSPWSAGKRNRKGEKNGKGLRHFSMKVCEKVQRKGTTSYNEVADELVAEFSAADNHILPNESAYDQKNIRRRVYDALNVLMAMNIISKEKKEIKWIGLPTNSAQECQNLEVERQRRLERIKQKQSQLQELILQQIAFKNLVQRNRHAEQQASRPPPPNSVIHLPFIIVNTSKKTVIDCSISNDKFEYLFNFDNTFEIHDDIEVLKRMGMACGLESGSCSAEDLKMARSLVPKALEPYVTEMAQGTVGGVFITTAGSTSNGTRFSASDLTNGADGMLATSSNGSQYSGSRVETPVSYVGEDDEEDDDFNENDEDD

B1: Rb R661W: known Rb null mutant (protein, UniProt P06400 2-928, looked up, variant R661W)
Retinoblastoma-associated …: PPKTPRKTAATAAAAAAEPPAPPPPPPPEEDPEQDSGPEDLPLVRLEFEETEEPDFTALCQKLKIPDHVRERAWLTWEKVSSVDGVLGGYIQKKKELWGICIFIAAVDLDEMSFTFTELQKNIEISVHKFFNLLKEIDTSTKVDNAMSRLLKKYDVLFALFSKLERTCELIYLTQPSSSISTEINSALVLKVSWITFLLAKGEVLQMEDDLVISFQLMLCVLDYFIKLSPPMLLKEPYKTAVIPINGSPRTPRRGQNRSARIAKQLENDTRIIEVLCKEHECNIDEVKNVYFKNFIPFMNSLGLVTSNGLPEVENLSKRYEEIYLKNKDLDARLFLDHDKTLQTDSIDSFETQRTPRKSNLDEEVNVIPPHTPVRTVMNTIQQLMMILNSASDQPSENLISYFNNCTVNPKESILKRVKDIGYIFKEKFAKAVGQGCVEIGSQRYKLGVRLYYRVMESMLKSEEERLSIQNFSKLLNDNIFHMSLLACALEVVMATYSRSTSQNLDSGTDLSFPWILNVLNLKAFDFYKVIESFIKAEGNLTREMIKHLERCEHRIMESLAWLSDSPLFDLIKQSKDREGPTDHLESACPLNLPLQNNHTAADMYLSPVRSPKKKGSTTRVNSTANAETQATSAFQTQKPLKSTSLSLFYKKVYRLAYLWLNTLCERLLSEHPELEHIIWTLFQHTLQNEYELMRDRHLDQIMMCSMYGICKVKNIDLKFKIIVTAYKDLPHAVQETFKRVLIKEEEYDSIIVFYNSVFMQRLKTNILQYASTRPPTLSPIPHIPRSPYKFPSSPLRIPGGNIYISPLKSPYKISEGLPTPTKMTPRSRILVSIGESFGTSEKFQKINQMVCNSDRVLKRSAEGSNPPKPLKKLRFDIEGSDEADGSKHLPGESKFQQKLAEMTSTRTRMQKQKMNDSMDTSNKEEK
With B1, the “luciferase activity / E2F1 interaction of Rb mutant” value is recorded as “completely disrupted the E2F1 interaction”, the Observed activity result is recorded as “N” and the “% (/wt)” value is 5.2%.

B2: Rb C706F: known Rb null mutant (protein, UniProt P06400 2-928, looked up, variant C706F)
Retinoblastoma-associated …: PPKTPRKTAATAAAAAAEPPAPPPPPPPEEDPEQDSGPEDLPLVRLEFEETEEPDFTALCQKLKIPDHVRERAWLTWEKVSSVDGVLGGYIQKKKELWGICIFIAAVDLDEMSFTFTELQKNIEISVHKFFNLLKEIDTSTKVDNAMSRLLKKYDVLFALFSKLERTCELIYLTQPSSSISTEINSALVLKVSWITFLLAKGEVLQMEDDLVISFQLMLCVLDYFIKLSPPMLLKEPYKTAVIPINGSPRTPRRGQNRSARIAKQLENDTRIIEVLCKEHECNIDEVKNVYFKNFIPFMNSLGLVTSNGLPEVENLSKRYEEIYLKNKDLDARLFLDHDKTLQTDSIDSFETQRTPRKSNLDEEVNVIPPHTPVRTVMNTIQQLMMILNSASDQPSENLISYFNNCTVNPKESILKRVKDIGYIFKEKFAKAVGQGCVEIGSQRYKLGVRLYYRVMESMLKSEEERLSIQNFSKLLNDNIFHMSLLACALEVVMATYSRSTSQNLDSGTDLSFPWILNVLNLKAFDFYKVIESFIKAEGNLTREMIKHLERCEHRIMESLAWLSDSPLFDLIKQSKDREGPTDHLESACPLNLPLQNNHTAADMYLSPVRSPKKKGSTTRVNSTANAETQATSAFQTQKPLKSTSLSLFYKKVYRLAYLRLNTLCERLLSEHPELEHIIWTLFQHTLQNEYELMRDRHLDQIMMFSMYGICKVKNIDLKFKIIVTAYKDLPHAVQETFKRVLIKEEEYDSIIVFYNSVFMQRLKTNILQYASTRPPTLSPIPHIPRSPYKFPSSPLRIPGGNIYISPLKSPYKISEGLPTPTKMTPRSRILVSIGESFGTSEKFQKINQMVCNSDRVLKRSAEGSNPPKPLKKLRFDIEGSDEADGSKHLPGESKFQQKLAEMTSTRTRMQKQKMNDSMDTSNKEEK
For B2, the “luciferase activity / E2F1 interaction of Rb mutant” value is listed as “completely disrupted the E2F1 interaction; also recorded: close to zero”, the Observed activity result was “N” and the “% (/wt)” value is 5.5%.

For the origin of these results see patent US11702666B2, “Cell-based assay for determining activity in the retinoblastoma pathway” (Medical Diagnostic Laboratories, LLC, priority 2017, dated 2023).
